Publication PMC3664820 (Nucleic Acids Research, 2013)

Target: the molecule itself
Assay: SEC

B1: Lac repressor (first 331 residues, dimeric, without the C-terminal tetramerization domain) (domain or fragment)
chain: MKPVTLYDVAEYAGVSYQTVSRVVNQASHVSAKTREKVEAAMAELNYIPNRVAQQLAGKQSLLIGVATSSLALHAPSQIVAAIKSRADQLGASVVVSMVERSGVEACKAAVHNLLAQRVSGLIINYPLDDQDAIAVEAACTNVPALFLDVSDQTPINSIIFSHEDGTRLGVEHLVALGHQQIALLAGPLSSVSARLRLAGWHKYLTRNQIQPIAEREGDWSAMSGFQQTMQMLNEGIVPTAMLVANDQMALGAMRAITESGLRVGADISVVGYDDTEDSSCYIPPLTTIKQDFRLLGQTSVDRLLQLSQGQAVKGNQLLPVSLVKRKTTLA
B1: binds.
